Reference: patent US20250152746A1, “BASE EDITING OF ANGPTL3 AND METHODS OF USING SAME FOR TREATMENT OF DISEASE” (Verve Therapeutics, Inc., priority 2020, published 2025)
In the oligonucleotide strings, read from the 5' end, every base follows the letter of its sugar. An asterisk marks phosphorothioate; unmarked linkages are phosphodiester. Other units and linkages are bracketed, terminal groups are in braces. A string of capitals states the bases alone. m = 2'-O-methyl; r = 2'-OH (RNA)

Assays:
PCSK9 gene [1] = assay: PCSK9 gRNA/SpCas9 editing in primary human hepatocytes (Tables 2, 4); assay type: cell-based; details: for editing compared with minimally modified control gRNA GA009: SpCas9 mRNA MS002; for % Editing, day 3 / % Editing, day 5: modified gRNA; for % Editing, day 3: day 3 post transfection; for % Editing, day 5: day 5 post transfection
Protocol: (§1) In set of experiments, PCSK9 gRNAs were co-transfected with an equivalent amount (1:1 ratio by weight) of in vitro transcribed commercially available SpCas9 mRNA MS002 purchased from TriLink Biotechnologies into primary human hepatocytes at 2500, 500, or 100 ng/RNA/mL and processed as described in detailed methods. Extracted genomic DNA was analyzed for gene editing at the target site with next-generation sequencing of PCR amplicons generated around the target sites. Samples were prepared using the Nextera XT DNA library preparation kit (Illumina) according to the manufacturer's protocol. Briefly, two rounds of PCR were performed first to amplify the region of interest and second to add DNA sequences required for next generation sequencing and sample identification to the initial product. The final amplicon was sequenced on the Illumina MiSeq instrument according to the manufacturer's protocol. A wide range of editing activities (Table 2) were observed. In a second set of experiments, ANGPTL3 gRNAs were co-transfected with an equivalent amount of in vitro transcribed SpCas9 mRNA (1:1 ratio by weight) into primary human hepatocytes and processed and analyzed similarly (Table 3).
PCSK9 gRNAs were co-transfected with an equivalent amount of in vitro transcribed SpCas9 mRNA MS002 (1:1 ratio by weight) into primary human hepatocytes and processed as described in detailed methods. A wide range of editing activities were observed (Table 4; ND=Not determined). The guides with the highest editing activity at five days post transfection were GA001, GA002, GA007, and GA008.
Human primary hepatocytes were transfected at 2500, 1250, 500, and 250 ng/test article/mL with SpCas9 mRNA MS002 and a gRNA targeting PCSK9 with modifications to the tracr. Genomic DNA was processed, sequenced, and analyzed as described in the detailed methods section. GA156 was transfected to serve as a positive control.
Plating, culturing, and transfection of primary hepatocytes. Primary human liver hepatocytes (PHH) and primary cynomolgus liver hepatocytes (PCH) from BioIVT were cultured per the manufacturer's protocol. Briefly, primary human hepatocytes and primary cyno hepatocytes were obtained as frozen aliquots from BioIVT. Four lots of primary human hepatocytes, each derived from a de-identified individual donor, were used for the experiments: STL (main donor) was used for all experiments, including screening experiments and off-target experiments; HLY, JLP, and TLY were used for off-target experiments. The HFG lot of primary cyno hepatocytes were used for experiments. Following the manufacturer's instructions, cells were thawed and rinsed prior to plating in 24-well plates that had been coated with bovine collagen overnight, with a density of approximate 350,000 cells/well in INVITROGRO hepatocyte medium supplemented with TORPEDO antibiotic mix (BioIVT). The cells were thawed and resuspended in hepatocyte thawing medium followed by centrifugation at 100 g for 10 min at 4° C. The supernatant was discarded, and the pelleted cells resuspended in hepatocyte plating medium. Each vial contains approximately 5 million cells that were used for plating one 24-well plate. Plated cells were allowed to settle and adhere for 4-6 h in a tissue culture incubator at 37° C. under 5% CO2 atmosphere. After incubation, cells were checked for monolayer formation. The incubating media were then replaced with fresh hepatocyte maintenance media (complete INVITROGRO medium obtained from BioIVT, the cell line provider). The cells thus became ready for transfection. Each of the gRNAs were co-transfected with an equivalent amount of in vitro transcribed ABE8.8 mRNA (1:1 ratio by molecular weight) into primary human hepatocytes via MessengerMax reagent (Lipofectamine), using various dilutions to assess for editing activity at different concentrations of test article. MessengerMAX from Thermo Fisher is used for transfection. […]

PCSK9 gene [2] = assay: PCSK9 gRNA/SpCas9 editing in primary cynomolgus hepatocytes (Tables 2, 22); assay type: cell-based, cynomolgus monkey
Protocol: as §1
[…] Genomic DNA was processed, sequenced, and analyzed as described in the detailed methods section. GA266 was transfected independently twice to serve as two positive controls.
Plating, culturing, and transfection of primary hepatocytes. Primary human liver hepatocytes (PHH) and primary cynomolgus liver hepatocytes (PCH) from BioIVT were cultured per the manufacturer's protocol. Briefly, primary human hepatocytes and primary cyno hepatocytes were obtained as frozen aliquots from BioIVT. Four lots of primary human hepatocytes, each derived from a de-identified individual donor, were used for the experiments: STL (main donor) was used for all experiments, including screening experiments and off-target experiments; HLY, JLP, and TLY were used for off-target experiments. The HFG lot of primary cyno hepatocytes were used for experiments. Following the manufacturer's instructions, cells were thawed and rinsed prior to plating in 24-well plates that had been coated with bovine collagen overnight, with a density of approximate 350,000 cells/well in INVITROGRO hepatocyte medium supplemented with TORPEDO antibiotic mix (BioIVT). The cells were thawed and resuspended in hepatocyte thawing medium followed by centrifugation at 100 g for 10 min at 4° C. The supernatant was discarded, and the pelleted cells resuspended in hepatocyte plating medium. Each vial contains approximately 5 million cells that were used for plating one 24-well plate. Plated cells were allowed to settle and adhere for 4-6 h in a tissue culture incubator at 37° C. under 5% CO2 atmosphere. After incubation, cells were checked for monolayer formation. The incubating media were then replaced with fresh hepatocyte maintenance media (complete INVITROGRO medium obtained from BioIVT, the cell line provider). The cells thus became ready for transfection. Each of the gRNAs were co-transfected with an equivalent amount of in vitro transcribed ABE8.8 mRNA (1:1 ratio by molecular weight) into primary human hepatocytes via MessengerMax reagent (Lipofectamine), using various dilutions to assess for editing activity at different concentrations of test article. MessengerMAX from Thermo Fisher is used for transfection. Solution A: desired amount of guide RNA is mixed with 1:1 wt ratio of mRNA in OptiMEM. Solution B: MessengerMAX in OptiMEM. After mixing solutions A and B, the mixture was incubated at room temperature for 20 min. 60 μL of the incubated solution was added dropwise to each cell wells. For protospacer sequences that were a perfect match to the corresponding cynomolgous monkey PCSK9 or ANGPTL3 gene sequence, each gRNA was also co-transfected with an equivalent amount of ABE8.8 mRNA (1:1 ratio by molecular weight) into primary cynomolgous hepatocytes, and followed the same transfection protocol. […]

[3] = SpCas9 mRNA MS002 1:1 by weight

B1: GA007: structure-guided 2′-OMe heavy guide RNA (gRNA) design, PCSK9 (nucleic acid)
guide: mG*mG*mU*rGrCrUrArGrCrCrUrUrGrCrGrUrUrCrCrGmGrUrUrUrUrArGmAmGmCmUmAmGmAmAmAmUmAmGmCmAmArGrUrUmArAmArAmUrAmAmGmGmCmUmArGrUmCmCrGrUrUrAmUmCrArAmCmUmUmGmAmAmAmAmAmGmUmGrGmCmAmCmCmGmAmGmUmCmGmGmUmGmCmU*mU*mU*mU
PCSK9 gene [1]
  editing compared with minimally modified control gRNA GA009: improved editing
PCSK9 gene [1]; [3]
  % Editing, day 3: 30%
  % Editing, day 5: 27%

B2: GA408 (nucleic acid)
guide: mU*mC*mA*rGrCrUrCrCrArGrGrCrGrGrUrCrCrUrGrGmGrUrUrUrUrArGmAmGmCmUmAmGmAmAmAmUmAmGmCmAmArGrUrUmArAmArAmUrAmAmGmGmCmUmArGrUmCmCrGrUrUrAmUmCrArAmCmUmUmGmAmAmAmAmAmGmUmGrGmCmAmCmCmGmAmGmUmCmGmGmUmGmCmU*mU*mU*mUmUrUmU
PCSK9 gene [2]; SpCas9 mRNA MS002, 625 ng/test article/mL, rep1
  Cynomolgus Primary Hepatocytes-% Editing: 36.7%
PCSK9 gene [2]; SpCas9 mRNA MS002, 625 ng/test article/mL, rep2
  Cynomolgus Primary Hepatocytes-% Editing: 37.14%
PCSK9 gene [2]; SpCas9 mRNA MS002, 1250 ng/test article/mL, rep1
  Cynomolgus Primary Hepatocytes-% Editing: 47.21%
PCSK9 gene [2]; SpCas9 mRNA MS002, 1250 ng/test article/mL, rep2
  Cynomolgus Primary Hepatocytes-% Editing: 49.8%
PCSK9 gene [2]; SpCas9 mRNA MS002, 2500 ng/test article/mL, rep1
  Cynomolgus Primary Hepatocytes-% Editing: 50.4%
PCSK9 gene [2]; SpCas9 mRNA MS002, 2500 ng/test article/mL, rep2
  Cynomolgus Primary Hepatocytes-% Editing: 46.92%

B3: GA004: PCSK9 gRNA, GA156 spacer with modifications to the tracrRNA sequence (nucleic acid)
guide: mG*mG*mU*rGrCrUrArGrCrCrUrUrGrCrGrUrUrCrCrGmGrUrUrUrUrArGmAmGmCmUmAmGmAmAmAmUmAmGmCmAmArGrUrUmArAmArAmUrAmAmGmGmCmUmArGrUmCmCrGrUrUrAmUmCrArAmCmUmUmGmAmAmAmAmAmGmUmGrGmCmAmCmCmGmAmGmUmCmGmGmUmGmCmUmUmUmUmU
PCSK9 gene [1]; [3]
  % Editing, day 3: 7%
  % Editing, day 5: 12%

B4: GA003: PCSK9 gRNA, GA156 spacer with modifications to the tracrRNA sequence (nucleic acid)
guide: mG*mG*mU*rGrCrUrArGrCrCrUrUrGrCrGrUrUrCrCrGrGrUrUrUrU*rArGrAmGmCmUmAmGmAmAmAmUmAmGmCrArArGrUrU*rArArArArU*rArArGrGrCrU*rArGrUrCrCrGrUrU*rArUrC*rAmAmCmUmUmGmAmAmAmAmAmGmUmGmGmCmAmCmCmGmAmGmUmCmGmGmUmGmCmU*mU*mU*mU
PCSK9 gene [1]; [3]
  % Editing, day 5: 7%

B5: GA006: PCSK9 gRNA, GA156 spacer with modifications to the tracrRNA sequence (nucleic acid)
guide: rG*rG*rU*rGrCrUrArGrCrCrUrUrGrCrGrUrUrCrCrGmGrUrUrUrUrArGmAmGmCmUmAmGmAmAmAmUmAmGmCmAmArGrUrUmArAmArAmUrAmAmGmGmCmUmArGrUmCmCrGrUrUrAmUmCrArAmCmUmUmGmAmAmAmAmAmGmUmGrGmCmAmCmCmGmAmGmUmCmGmGmUmGmCmU*mU*mU*mU
PCSK9 gene [1]; [3]
  % Editing, day 5: 12%

B6: GA226: PCSK9 gRNA; protospacer GGCTTTTCCGAATAAACTCC (SEQ ID NO: 220) (nucleic acid)
guide: GGCUUUUCCGAAUAAACUCCGUUUUAGAGCUAGAAAUAGCAAGUUAAAAUAAGGCUAGUCCGUUAUCAACUUGAAAAAGUGGCACCGAGUCGGUGCUUUU
modifications: sugars from the 5' end m3 r94 m3, linkages s3 o93 s3 (s phosphorothioate, o phosphodiester), T or U not given here
PCSK9 gene [1]; 100 ng/RNA/mL, SpCas9 mRNA MS002 1:1 by weight
  Human Primary Hepatocyte Editing % 100: 0.4%
PCSK9 gene [1]; 500 ng/RNA/mL, SpCas9 mRNA MS002 1:1 by weight
  Human Primary Hepatocyte Editing % 500: 2.99%
PCSK9 gene [1]; 2500 ng/RNA/mL, SpCas9 mRNA MS002 1:1 by weight
  Human Primary Hepatocyte Editing % 2500: 7.61%

B7: GA008: structure-guided 2′-OMe heavy guide RNA (gRNA) design, PCSK9 (nucleic acid)
guide: mG*mG*mU*rGrCrUrArGrCrCrUrUrGrCrGrUrUrCrCrGmGrUrUrUrUrArGmAmGmCmUmAmGmAmAmAmUmAmGmCmAmArGrUrU*mArAmArAmUrAmAmGmGmCmUmArGrUmCmCrGrUrU*rAmUmCrArAmCmUmUmGmAmAmAmAmAmGmUmGrGmCmAmCmCmGmAmGmUmCmGmGmUmGmCmU*mU*mU*mU
PCSK9 gene [1]
  editing compared with minimally modified control gRNA GA009: improved editing
PCSK9 gene [1]; [3]
  % Editing, day 3: 20%
  % Editing, day 5: 28%

B8: GA002: PCSK9 gRNA, GA156 spacer with modifications to the tracrRNA sequence (nucleic acid)
guide: GGTGCTAGCCTTGCGTTCCGGTTTTAGAGCTAGAAATAGCAAGTTAAAATAAGGCTAGTCCGTTATCAACTTGAAAAAGTGGCACCGAGTCGGTGCTTTT
modifications: listed as RNA; modified_base 1: mod_base = OTHER; note = 2'-O-Methyl-guanosine phosphorothioate; modified_base 2: mod_base = OTHER; modified_base 3: mod_base = OTHER; note = 2'-O-Methyl-uridine phosphorothioate
PCSK9 gene [1]; [3]
  % Editing, day 3: 28%
  % Editing, day 5: 23%

B9: GA001: PCSK9 gRNA, GA156 spacer with modifications to the tracrRNA sequence (nucleic acid)
guide: rG*rG*rU*rGrCrUrArGrCrCrUrUrGrCrGrUrUrCrCrGrGrUrUrUrUrArGrAmGmCmUmAmGmAmAmAmUmAmGmCrArArGrUrUrArArArArUrArArGrGrCrUrArGrUrCrCrGrUrUrArUrCrAmAmCmUmUmGmAmAmAmAmAmGmUmGmGmCmAmCmCmGmAmGmUmCmGmGmUmGmCmU*mU*mU*mU
PCSK9 gene [1]; [3]
  % Editing, day 3: 16%
  % Editing, day 5: 27%

B10: GA009: minimally modified control gRNA, PCSK9 (nucleic acid)
guide: mG*mG*mU*rGrCrUrArGrCrCrUrUrGrCrGrUrUrCrCrGrGrUrUrUrUrArGrArGrCrUrArGrArArArUrArGrCrArArGrUrUrArArArArUrArArGrGrCrUrArGrUrCrCrGrUrUrArUrCrArArCrUrUrGrArArArArArGrUrGrGrCrArCrCrGrArGrUrCrGrGrUrGrCrU*mU*mU*mU
PCSK9 gene [1]; [3]
  % Editing, day 3: 4%
  % Editing, day 5: 19%

B11: GA005: PCSK9 gRNA, GA156 spacer with modifications to the tracrRNA sequence (nucleic acid)
guide: GGTGCTAGCCTTGCGTTCCGGTTTTAGAGCTAGAAATAGCAAGTTAAAATAAGGCTAGTCCGTTATCAACTTGAAAAAGTGGCACCGAGTCGGTGCTTTTT
modifications: chemistry not given here
PCSK9 gene [1]; [3]
  % Editing, day 3: 1%
  % Editing, day 5: 15%
